Assay results from article PMC3846842.
Several values for one entry are separate records, joined by “and”; a condition that tells them apart may be missing. Equal entries are not always repeated.

Assays:
[1] = biological target: BteA287 (BteA N-terminal domain, residues 1-287) (Bordetella pertussis); experiment: MALDI-TOF MS; BtcA-BteA287 complex, linear mode, m/z 20,000 to 150,000; the methods describe EGS cross-linking of the complex before MALDI-TOF analysis
[2] = biological target: BteA287 (BteA N-terminal domain, residues 1-287) (Bordetella pertussis); experiment: MST; labeled BteA287 or BteA32-287 (NT-495 BLUE-NHS) mixed with BtcA serially diluted from 200 uM or 100 uM; 20 mM Tris 8, 350 mM NaCl, 20 mM EDTA, 0.05% Tween-20; 20°C; logistic dose-response fit, three measurements averaged
[3] = biological target: BteA32-287 (Bordetella pertussis); experiment: as above
[4] = biological target: BtcA (Bordetella pertussis); experiment: SEC-RALS; BtcA (525 ug) on Superdex 200 10/300 with triple detector array; 20 mM Tris pH 8.0, 350 mM NaCl, 20 mM EDTA
[5] = biological target: BtcA (Bordetella pertussis); experiment: cross-linking; BtcA about 4 mg/ml in PBS with serially diluted EGS (from 3 mM), 30 min at RT, SDS-PAGE

Row | Substance | stoichiometry N (BtcA per BteA287) [1] | Kd [2] [µM] | Kd [3] [µM] | stoichiometry N [4] | stoichiometry N [5] | stoichiometry N [1]
1 | BtcA (natural protein) | 1 and 2 | 6.6 | 14 | 2 | 2 | –
2 | BteA287 (BteA N-terminal domain, residues 1-287) (domain or fragment) | – | – | – | – | – | 2
